In IntAct's records for PubMed 20643958:

B1: DNA primase large subunit (Homo sapiens), P49643-1 (parent)
chain: MEFSGRKWRKLRLAGDQRNASYPHCLQFYLQPPSENISLIEFENLAIDRVKLLKSVENLGVSYVKGTEQYQSKLESELRKLKFSYRENLEDEYEPRRRDHISHFILRLAYCQSEELRRWFIQQEMDLLRFRFSILPKDKIQDFLKDSQLQFEAISDEEKTLREQEIVASSPSLSGLKLGFESIYKIPFADALDLFRGRKVYLEDGFAYVPLKDIVAIILNEFRAKLSKALALTARSLPAVQSDERLQPLLNHLSHSYTGQDYSTQGNVGKISLDQIDLLSTKSFPPCMRQLHKALRENHHLRHGGRMQYGLFLKGIGLTLEQALQFWKQEFIKGKMDPDKFDKGYSYNIRHSFGKEGKRTDYTPFSCLKIILSNPPSQGDYHGCPFRHSDPELLKQKLQSYKISPGGISQILDLVKGTHYQVACQKYFEMIHNVDDCGFSLNHPNQFFCESQRILNGGKDIKKEPIQPETPQPKPSVQKTKDASSALASLNSSLEMDMEGLEDYFSEDS

Variants of: B1
Conditions: with rfa2_human RPA2, P15927
Chain of rfa2_human RPA2, P15927 (P15927 whole entry): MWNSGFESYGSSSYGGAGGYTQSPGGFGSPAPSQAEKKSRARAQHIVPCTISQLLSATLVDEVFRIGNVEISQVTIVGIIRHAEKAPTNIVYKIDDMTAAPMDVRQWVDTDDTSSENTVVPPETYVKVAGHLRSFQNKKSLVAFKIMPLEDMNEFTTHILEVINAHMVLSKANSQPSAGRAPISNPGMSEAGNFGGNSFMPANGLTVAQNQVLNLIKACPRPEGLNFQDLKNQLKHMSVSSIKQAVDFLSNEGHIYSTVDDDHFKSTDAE

| Variant | effect of a mutation on the interaction |
| --- | --- |
| R296E | decreasing interaction |
| H299D | decreasing interaction |
| R302E | decreasing interaction |

Variants of: B1
Conditions: with rfa2_human RPA2, P15927
Remark: another data set of the same source

| Variant | effect of a mutation on the interaction |
| --- | --- |
| R302E | disrupting interaction |
